The values below come from publication PMC7587174, “ACE Inhibitory Activity and Molecular Docking of Gac Seed Protein Hydrolysate Purified by HILIC and RP-HPLC” (Molecules, 2020).

Like-named read-outs stand apart in the source and are kept apart here. Residues, ends and D or L forms follow the SMILES beside them. No end group written: not given here.

The target of experiment [1] is angiotensin I-converting enzyme (ACE) (Homo sapiens, UniProt P12821). As to the kind of experiment: In vitro ACE inhibitory assay (HHL substrate, RP-HPLC detection). In kind it is biochemical. The following applies: synthetic peptides, purity >95%; HHL substrate 2.5 mM (30 µL), ACE 0.05 mU/µL (20 µL), pre-incubation 37 °C 5 min, incubation 37 °C 30 min; HPLC-UV 228 nm; non-linear regression, nine concentrations, repeated three times; read-out: IC50 of synthetic peptides against ACE. How it is done:
The method to determine the ACE inhibitory activity of gac seeds peptides hydrolysate was adapted according to a previous report with slight modification. Briefly, the sample dissolved in ddH2O (10 µL) was added to 2.5 mM hippuryl-L-histidyl-L-leucine (30 µL). Borate buffer (10 µL) was used as blank solution. In total, 50 µM Captopril (10 µL) was used as positive control. The samples, blank, and positive control were incubated at 37 °C for 5 min. Then, 0.05 mU/µL of ACE (20 µL) was added into each solution. The reaction mixture was incubated at 37 °C for 30 min and mixed in a shaker incubator at 200 rpm for 30 min. The reaction was stopped by adding 1 N HCl (60 µL). After, 0.25 mg/mL ferulic acid (10 µL) was added as an internal standard. Samples were centrifuged (Hitachi Koki Co., Ltd., Tokyo, Japan) at 15,000 rpm for 2 min. The samples were separated by RP-HPLC using a C18 column (4.6 mm × 250 mm, particle size 5 µm) (Macherey-Nagel, Duren, Germany). Samples were selected using an isocratic gradient of 95% solvent A and […] solvent B at a flow rate of 1 mL/min. Solvent A was prepared by 5% acetonitrile + 0.1% trifluoroacetic acid and solvent B was prepared by 95% acetonitrile + 0.1% trifluoroacetic acid. Absorbance was measured using a UV detector at 228 nm. ACE inhibitory activity (%) was examined in triplicate and calculated according to the following equation:ACE-inhibitory activity (%) = [1 − (ΔAinhibition)/(ΔAcontrol)] × 100%, where ΔAinhibition and ΔAcontrol are the peak areas in the sample with or without inhibitor.
The definition of IC50 is the peptide concentration required to inhibit 50% of angiotensin-converting enzyme. The IC50 was calculated using non-linear regression of the ACE inhibitory activity (%) from nine different concentrations. This assay was repeated three times for each experiment.

The target in experiment [2] is T1, ACE (Homo sapiens, UniProt P12821). The experiment can be described thus: Kinetics of ACE inhibition (Lineweaver-Burk plot). The following applies: with increasing ALVY concentration. In kind it is biochemical. The method, then:
Kinetics of ACE inhibition was determined by a previous method with some modifications. The hydrolysis rate of HHL by ACE over a range of HHL concentrations of 0.005, 0.1, 0.5, 1, and 2 mM was measured while varying the concentrations of ALVY. The modes of ACE inhibition were determined from Lineweaver-Burk plots while inhibition parameters (Vmax and Km) were calculated, respectively, as the Y- and X-axis intercepts of the primary plot.

For experiment [3], the target named is T1, ACE. Set-up: method as in 6 sources, ref 38 = [38]; PMID 31264418; doi:10.1021/acs.jafc.9b01922; 38. Shih Y.H. Chen F.A. Wang L.F. Hsu J.L. Discovery and study of novel antihypertensive peptides derived from cassia obtusifolia seeds J. Agric. Food Chem. 2019 67 7810 7820 10.1021/acs.jafc.9b01922 ||| ref 39 = [39]; PMID 26948626; doi:10.1016/j.foodchem.2016.02.097; 39. Gangopadhyay N. Wynne K. O’Connor P. Gallagher E. Brunton N.P. Rai D.K. Hayes M. In silico and in vitro analyses of the angiotensin-I converting enzyme inhibitory activity of hydrolysates generate ||| ref 40 = [40]; PMID 26344130; doi:10.1016/j.jprot.2015.08.018; 40. Priyanto A.D. Doerksen R.J. Chang C.-I. Sung W.-C. Widjanarko S.B. Kusnadi J. Lin Y.-C. Wang T.-C. Hsu J.-L. Screening, discovery, and characterization of angiotensin-I converting enzyme inhibitor ||| ref 41 = [41]; PMID 29112398; doi:10.1021/acs.jafc.7b04522; 41. Orio L.P. Boschin G. Recca T. Morelli C.F. Ragona L. Francescato P. Arnoldi A. Speranza G. New ACE-inhibitory peptides from hemp seed ( Cannabis sativa L.) proteins J. Agric. Food Chem. 2017 65 10 ||| ref 42 = [42]; PMID 21381782; doi:10.1021/jf104998s; 42. Yang R. Zou Y. Yu N. Gu Z. Accumulation and identification of angiotensin-converting enzyme inhibitory peptides from wheat germ J. Agric. Food Chem. 2011 59 3598 3605 10.1021/jf104998s 21381782 ||| ... Conditions: cited from earlier work.

In experiment [4] the target is Angiotensin I-converting enzyme (UniProt P12821).
Chain of Angiotensin I-converting enzyme (P12821 30-1306): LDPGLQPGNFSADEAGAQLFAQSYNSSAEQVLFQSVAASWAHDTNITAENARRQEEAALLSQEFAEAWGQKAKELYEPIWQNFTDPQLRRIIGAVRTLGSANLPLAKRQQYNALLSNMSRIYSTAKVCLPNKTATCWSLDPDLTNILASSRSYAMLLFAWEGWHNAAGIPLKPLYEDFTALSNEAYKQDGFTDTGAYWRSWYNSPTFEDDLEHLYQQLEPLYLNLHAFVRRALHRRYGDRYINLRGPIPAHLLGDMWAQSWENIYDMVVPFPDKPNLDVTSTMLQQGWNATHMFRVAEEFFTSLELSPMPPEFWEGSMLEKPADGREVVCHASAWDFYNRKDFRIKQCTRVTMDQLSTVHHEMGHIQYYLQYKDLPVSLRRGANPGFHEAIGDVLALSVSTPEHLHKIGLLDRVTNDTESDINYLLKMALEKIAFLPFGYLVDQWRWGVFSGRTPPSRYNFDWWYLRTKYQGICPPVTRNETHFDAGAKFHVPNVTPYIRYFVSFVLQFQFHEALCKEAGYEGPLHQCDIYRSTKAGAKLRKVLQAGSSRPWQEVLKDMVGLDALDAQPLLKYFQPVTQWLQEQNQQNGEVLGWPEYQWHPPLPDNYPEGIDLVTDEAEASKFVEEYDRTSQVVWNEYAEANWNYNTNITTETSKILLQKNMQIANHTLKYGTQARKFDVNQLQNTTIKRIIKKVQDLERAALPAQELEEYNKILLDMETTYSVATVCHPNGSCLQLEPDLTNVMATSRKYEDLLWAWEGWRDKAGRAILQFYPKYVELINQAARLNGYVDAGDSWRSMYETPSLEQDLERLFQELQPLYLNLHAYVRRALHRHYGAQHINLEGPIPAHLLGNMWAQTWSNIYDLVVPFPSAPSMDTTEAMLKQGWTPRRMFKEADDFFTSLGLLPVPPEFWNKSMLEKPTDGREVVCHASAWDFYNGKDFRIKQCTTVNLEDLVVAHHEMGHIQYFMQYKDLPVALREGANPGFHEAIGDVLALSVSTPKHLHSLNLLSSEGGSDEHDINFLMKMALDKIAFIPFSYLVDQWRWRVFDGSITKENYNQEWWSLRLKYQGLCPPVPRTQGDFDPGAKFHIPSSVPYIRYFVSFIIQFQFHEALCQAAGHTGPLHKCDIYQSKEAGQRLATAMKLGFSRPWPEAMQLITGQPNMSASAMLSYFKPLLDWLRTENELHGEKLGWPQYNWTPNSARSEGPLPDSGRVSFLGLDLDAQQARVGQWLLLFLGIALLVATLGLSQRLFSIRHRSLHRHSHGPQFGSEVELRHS

T1 sequence (P12821 30-1306, species assumed): as the sequence (P12821 30-1306) above
Chain of angiotensin I-converting enzyme (ACE) (P12821 30-1306, species assumed): as the sequence (P12821 30-1306) above

For orientation: IC50 means the concentration that inhibits the measured activity by half. Consider `CC(C)C[C@H](NC(=O)[C@H](C)N)C(=O)N[C@H](C(=O)N[C@@H](Cc1ccc(O)cc1)C(=O)O)C(C)C` [ALVY] (H-ALVY-OH), for which the IC50 in experiment [1] was found to be 7.03 ± 0.09 µM. Besides, the “Effect on Km” value at ACE [2] was “increased with the increasing peptide concentration”. On to `CC(C)C[C@H](NC(=O)[C@@H](N)CC(C)C)C(=O)N[C@H](C(=O)N[C@@H](Cc1ccc(O)cc1)C(=O)O)C(C)C` [LLVY] (H-LLVY-OH), for which the IC50 in experiment [1] was determined as 87.8 ± 3.37 µM. With “FHAPWK [peptide from Cassia obtusifolia seeds]”, in the experiment with ACE [3] (Cassia obtusifolia seeds, read-out: IC50 (Cassia obtusifolia seeds peptide)), the IC50 is 16.8 µM. Take LLAPHY [LLAPHY]: in experiment [1], the IC50 was determined as 15.9 ± 0.52 µM.

As for LSTSTDVR-OH [LSTSTDVR], the IC50 in experiment [1] was greater than 167 µM. On to “VSGAGRY [peptide from bitter melon seeds]”, for which the IC50 in the experiment with ACE [3] (bitter melon seeds, read-out: IC50 (bitter melon seeds peptide)) is 8.6 µM. As for ALVY, the IC50 of ACE inhibitory activity (hydrolysis of hippuryl-L-histidyl-L-leucine by ACE, 37 °C, RP-HPLC read-out at 228 nm; synthetic peptide, nine concentrations) in experiment [4] is 7.03 µM.

With LLAPHY, the IC50 of ACE inhibitory activity (hydrolysis of hippuryl-L-histidyl-L-leucine by ACE, 37 °C, RP-HPLC read-out at 228 nm; synthetic peptide, nine concentrations) in experiment [4] turned out to be 15.9 µM. LLVY: the IC50 of ACE inhibitory activity (hydrolysis of hippuryl-L-histidyl-L-leucine by ACE, 37 °C, RP-HPLC read-out at 228 nm; synthetic peptide, nine concentrations) in experiment [4] came to 87.8 µM.

On to LSTSTDVR, for which, in experiment [4], the IC50 of ACE inhibitory activity (hydrolysis of hippuryl-L-histidyl-L-leucine by ACE, 37 °C, RP-HPLC read-out at 228 nm; synthetic peptide, nine concentrations) is greater than 167 µM.
